Residue numbers refer to the chain shown, from its start.
B1: GpH7-A5/GpH7-B3 variant P271_03V/GpL16-k0 (antibody, human IgG1, kappa)
heavy 1: not shown
heavy 2: not shown
light: DIVMTQSPLSLPVTPGEPASISCQASESLVHSNRNTYLHWYLQKPGQSPQLLIYKVSNRFSGVPDRFSGSGSGTDFTLKISRVEAEDVGVYYCSQNTHVPPTFGQGTKVEIERTVAAPSVFIFPPSDEQLKSGTASVVCLLNNFYPREAKVQWKVDNALQSGNSQESVTEQDSKDSTYSLSSTLTLSKADYEKHKVYACEVTHQGLSSPVTKSFNRGEC
notes: heterodimerized IgG1, one H chain mutated; also called He Ab; copies: 1 + 1 + 2
B2: GpH7-A5/GpH7-B3 variant P271_20W/GpL16-k0 (antibody, human IgG1, kappa)
heavy 1: not shown
heavy 2: not shown
light: B1 light
notes: as for B1
B3: GpH7-A5/GpH7-B3 variant P271_13S/GpL16-k0 (antibody, human IgG1, kappa)
heavy 1: not shown
heavy 2: not shown
light: B1 light
notes: as for B1
B4: GpH7-A5/GpH7-B3 variant S298_02A/GpL16-k0 (antibody, human IgG1, kappa)
heavy 1: not shown
heavy 2: not shown
light: B1 light
notes: as for B1
B5: GpH7-A5/GpH7-B3 variant Q295_13S/GpL16-k0 (antibody, human IgG1, kappa)
heavy 1: not shown
heavy 2: not shown
light: B1 light
notes: as for B1
B6: GpH7-A5/GpH7-B3 variant P271_11K/GpL16-k0 (antibody, human IgG1, kappa)
heavy 1: not shown
heavy 2: not shown
light: B1 light
notes: as for B1
B7: GpH7-A5/GpH7-B3 variant P271_12R/GpL16-k0 (antibody, human IgG1, kappa)
heavy 1: not shown
heavy 2: not shown
light: B1 light
notes: as for B1
B8: GpH7-A5/GpH7-B3 variant Q295_01G/GpL16-k0 (antibody, human IgG1, kappa)
heavy 1: not shown
heavy 2: not shown
light: B1 light
notes: as for B1
B9: GpH7-A5/GpH7-B3 variant Q295_11K/GpL16-k0 (antibody, human IgG1, kappa)
heavy 1: not shown
heavy 2: not shown
light: B1 light
notes: as for B1
B10: GpH7-A5/GpH7-B3 variant Q295_06M/GpL16-k0 (antibody, human IgG1, kappa)
heavy 1: not shown
heavy 2: not shown
light: B1 light
notes: as for B1
B11: GpH7-A5/GpH7-B3 variant Q295_10E/GpL16-k0 (antibody, human IgG1, kappa)
heavy 1: not shown
heavy 2: not shown
light: B1 light
notes: as for B1
B12: GpH7-A5/GpH7-B3 variant Q295_15Y/GpL16-k0 (antibody, human IgG1, kappa)
heavy 1: not shown
heavy 2: not shown
light: B1 light
notes: as for B1
B13: GpH7-A5/GpH7-B3 variant P271_09D/GpL16-k0 (antibody, human IgG1, kappa)
heavy 1: not shown
heavy 2: not shown
light: B1 light
notes: as for B1
B14: GpH7-A5/GpH7-B3 variant Q295_14T/GpL16-k0 (antibody, human IgG1, kappa)
heavy 1: not shown
heavy 2: not shown
light: B1 light
notes: as for B1
B15: GpH7-A5/GpH7-B3 variant S298_01G/GpL16-k0 (antibody, human IgG1, kappa)
heavy 1: not shown
heavy 2: not shown
light: B1 light
notes: as for B1
B16: GpH7-A5/GpH7-B3 variant P271_06M/GpL16-k0 (antibody, human IgG1, kappa)
heavy 1: not shown
heavy 2: not shown
light: B1 light
notes: as for B1
B17: GpH7-A5/GpH7-B3 variant P271_18N/GpL16-k0 (antibody, human IgG1, kappa)
heavy 1: not shown
heavy 2: not shown
light: B1 light
notes: as for B1
B18: GpH7-A5/GpH7-B3 variant P271_19Q/GpL16-k0 (antibody, human IgG1, kappa)
heavy 1: not shown
heavy 2: not shown
light: B1 light
notes: as for B1
B19: GpH7-A5/GpH7-B3 variant Q295_05P/GpL16-k0 (antibody, human IgG1, kappa)
heavy 1: not shown
heavy 2: not shown
light: B1 light
notes: as for B1
B20: GpH7-A5/GpH7-B3 variant Q295_18N/GpL16-k0 (antibody, human IgG1, kappa)
heavy 1: not shown
heavy 2: not shown
light: B1 light
notes: as for B1
B21: GpH7-A5/GpH7-B3 variant Q295_16H/GpL16-k0 (antibody, human IgG1, kappa)
heavy 1: not shown
heavy 2: not shown
light: B1 light
notes: as for B1
B22: GpH7-A5/GpH7-B3 variant P271_07I/GpL16-k0 (antibody, human IgG1, kappa)
heavy 1: not shown
heavy 2: not shown
light: B1 light
notes: as for B1
B23: GpH7-A5/GpH7-B3 variant P271_08L/GpL16-k0 (antibody, human IgG1, kappa)
heavy 1: not shown
heavy 2: not shown
light: B1 light
notes: as for B1
B24: GpH7-A5/GpH7-B3 variant Q295_08L/GpL16-k0 (antibody, human IgG1, kappa)
heavy 1: not shown
heavy 2: not shown
light: B1 light
notes: as for B1
B25: GpH7-A5/GpH7-B3 variant Q295_04F/GpL16-k0 (antibody, human IgG1, kappa)
heavy 1: not shown
heavy 2: not shown
light: B1 light
notes: as for B1
B26: GpH7-A5/GpH7-B3 variant Q295_02A/GpL16-k0 (antibody, human IgG1, kappa)
heavy 1: not shown
heavy 2: not shown
light: B1 light
notes: as for B1
B27: GpH7-A5/GpH7-B3 variant Q295_03V/GpL16-k0 (antibody, human IgG1, kappa)
heavy 1: not shown
heavy 2: not shown
light: B1 light
notes: as for B1
B28: GpH7-A5/GpH7-B3 variant Q295_07I/GpL16-k0 (antibody, human IgG1, kappa)
heavy 1: not shown
heavy 2: not shown
light: B1 light
notes: as for B1
B29: GpH7-A5/GpH7-B3 variant P271_10E/GpL16-k0 (antibody, human IgG1, kappa)
heavy 1: not shown
heavy 2: not shown
light: B1 light
notes: as for B1
B30: GpH7-A5/GpH7-B3 variant Q295_09D/GpL16-k0 (antibody, human IgG1, kappa)
heavy 1: not shown
heavy 2: not shown
light: B1 light
notes: as for B1

target: T1, FcγRIIIa extracellular domain, C-terminal His tag (human, UniProt P08637 17-208); assay: SPR; He Ab vs HeCon Ab (GpH7-A5/GpH7-B3/GpL16-k0)=100;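 also: surface plasmon resonance at 25 °C with the test antibody captured on a sensor chip via antigenic peptide, protein L or protein A/G and FcγR flowed over as analyte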
T1 construct: extracellular domain; also called 3a
T1 sequence (P08637 other isoform, or with tags, fused parts or gaps): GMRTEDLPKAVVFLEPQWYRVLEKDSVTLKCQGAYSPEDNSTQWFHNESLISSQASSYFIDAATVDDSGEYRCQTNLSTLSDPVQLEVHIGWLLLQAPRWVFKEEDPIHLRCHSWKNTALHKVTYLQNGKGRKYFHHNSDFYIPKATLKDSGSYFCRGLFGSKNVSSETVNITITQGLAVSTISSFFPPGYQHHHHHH
Description: (§1) The antibody of interest was analyzed for its interaction with FcγR using a BiaCore™ T100, BiaCore™ A100, or BiaCore™ 4000 surface plasmon resonance system (GE Healthcare Japan Corp.). The running buffer used was HBS-EP+ (GE Healthcare Japan Corp.). The assay temperature was set to 25° C. The sensor chips used were: a chip prepared by immobilizing antigenic peptides onto Series S Sensor Chip CM5 (GE Healthcare Japan Corp.) by the amine coupling method; a chip prepared by immobilizing antigenic peptides biotinylated in advance onto Series S Sensor Chip SA (certified) (GE Healthcare Japan Corp.) through their interaction; a chip prepared by immobilizing protein L (ACTIGEN, BioVision, Inc.) onto Series S Sensor Chip CM5 (GE Healthcare Japan Corp.); and a chip prepared by immobilizing protein A/G (Thermo Fisher Scientific K.K.) onto Series S Sensor Chip CM5 (GE Healthcare Japan Corp.). The antibody of interest was captured onto any of these chips and allowed to interact with FcγR diluted with a running buffer. The antibody captured on the chip was washed off through the reaction of 10 mM glycine-HCl (pH 1.5) to regenerate the chip, which was repetitively used.

| Binder | He/Con 3a |
| --- | --- |
| B1 | 73.5% |
| B2 | 77.8% |
| B3 | 79.8% |
| B4 | 151% |
| B5 | 90.4% |
| B6 | 92.5% |
| B7 | 87.6% |
| B8 | 76.6% |
| B9 | 81.8% |
| B10 | 100% |
| B11 | 105% |
| B12 | 81.5% |
| B13 | 97.7% |
| B14 | 120% |
| B15 | 74.9% |
| B16 | 74% |
| B17 | 94% |
| B18 | 84.6% |
| B19 | 74.4% |
| B20 | 85.7% |
| B21 | 80.2% |
| B22 | 80.2% |
| B23 | 74.5% |
| B24 | 120% |
| B25 | 75.1% |
| B26 | 111% |
| B27 | 86.2% |
| B28 | 101% |
| B29 | 98.2% |
| B30 | 85.6% |

target: T2, FcγRIa extracellular domain, C-terminal His tag (human, UniProt P12314 16-292); assay: as above
T2 construct: extracellular domain; also called 1a
T2 sequence (P12314 other isoform, or with tags, fused parts or gaps): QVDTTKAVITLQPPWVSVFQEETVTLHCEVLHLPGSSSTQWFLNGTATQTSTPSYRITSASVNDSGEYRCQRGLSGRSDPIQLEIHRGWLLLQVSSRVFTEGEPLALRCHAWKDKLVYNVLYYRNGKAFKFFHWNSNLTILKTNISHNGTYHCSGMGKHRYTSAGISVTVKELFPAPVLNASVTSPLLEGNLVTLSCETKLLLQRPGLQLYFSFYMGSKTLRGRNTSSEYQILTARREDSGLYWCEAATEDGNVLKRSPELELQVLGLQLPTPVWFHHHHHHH
Description: as §1

| Binder | He/Con 1a |
| --- | --- |
| B1 | 101% |
| B2 | 101% |
| B3 | 101% |
| B4 | 103% |
| B5 | 100% |
| B6 | 101% |
| B7 | 101% |
| B8 | 96.1% |
| B9 | 99.7% |
| B10 | 102% |
| B11 | 101% |
| B12 | 100% |
| B13 | 100% |
| B14 | 101% |
| B15 | 100% |
| B16 | 101% |
| B17 | 102% |
| B18 | 102% |
| B19 | 102% |
| B20 | 101% |
| B21 | 101% |
| B22 | 101% |
| B23 | 101% |
| B24 | 103% |
| B25 | 101% |
| B26 | 103% |
| B27 | 102% |
| B28 | 101% |
| B29 | 101% |
| B30 | 98.5% |

target: T3, FcγRIIa(R) extracellular domain, C-terminal His tag (human, UniProt P12318 34-217); assay: as above
T3 construct: extracellular domain; also called 2aR
T3 sequence: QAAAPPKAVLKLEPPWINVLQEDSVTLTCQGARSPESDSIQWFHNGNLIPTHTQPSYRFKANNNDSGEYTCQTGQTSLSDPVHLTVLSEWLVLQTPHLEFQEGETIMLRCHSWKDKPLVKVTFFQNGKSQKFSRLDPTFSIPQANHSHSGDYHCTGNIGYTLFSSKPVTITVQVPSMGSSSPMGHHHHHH
Description: as §1

| Binder | He/Con 2aR |
| --- | --- |
| B1 | 85.8% |
| B2 | 76.6% |
| B3 | 93.5% |
| B4 | 87.2% |
| B5 | 73% |
| B6 | 97.3% |
| B7 | 95.8% |
| B8 | 60.3% |
| B9 | 88.1% |
| B10 | 101% |
| B11 | 101% |
| B12 | 82% |
| B13 | 109% |
| B14 | 79.2% |
| B15 | 94.5% |
| B16 | 87.3% |
| B17 | 97.7% |
| B18 | 95.1% |
| B19 | 86.6% |
| B20 | 81.7% |
| B21 | 80.5% |
| B22 | 88% |
| B23 | 103% |
| B24 | 118% |
| B25 | 82.8% |
| B26 | 91.5% |
| B27 | 90.3% |
| B28 | 97.3% |
| B29 | 102% |
| B30 | 68.7% |

target: T4, FcγRIIb extracellular domain, C-terminal His tag (human, UniProt P31994 43-217); assay: as above
T4 construct: extracellular domain; also called 2b
T4 sequence: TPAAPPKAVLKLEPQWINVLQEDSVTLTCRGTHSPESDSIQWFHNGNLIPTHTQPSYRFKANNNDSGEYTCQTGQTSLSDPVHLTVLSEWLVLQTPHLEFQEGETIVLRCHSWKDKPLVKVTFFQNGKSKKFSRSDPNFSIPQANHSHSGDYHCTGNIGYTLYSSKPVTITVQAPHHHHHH
Description: as §1

| Binder | He/Con 2b |
| --- | --- |
| B1 | 83.8% |
| B2 | 65.1% |
| B3 | 98.2% |
| B4 | 74.4% |
| B5 | 63.8% |
| B6 | 101% |
| B7 | 96.9% |
| B8 | 51.6% |
| B9 | 79% |
| B10 | 101% |
| B11 | 106% |
| B12 | 73.3% |
| B13 | 135% |
| B14 | 74.9% |
| B15 | 81.2% |
| B16 | 87% |
| B17 | 105% |
| B18 | 99.3% |
| B19 | 75.7% |
| B20 | 72.8% |
| B21 | 70.3% |
| B22 | 86.1% |
| B23 | 115% |
| B24 | 134% |
| B25 | 72.6% |
| B26 | 89.4% |
| B27 | 84.9% |
| B28 | 94.5% |
| B29 | 122% |
| B30 | 68.1% |

target: T5, FcγRIIa(H) extracellular domain, C-terminal His tag (human, UniProt P12318 34-217); assay: as above
T5 construct: extracellular domain; also called 2aH
T5 sequence: T3 sequence with R134H
Description: as §1

| Binder | He/Con 2aH |
| --- | --- |
| B1 | 85.4% |
| B2 | 88.7% |
| B3 | 83.3% |
| B4 | 74.3% |
| B5 | 79.5% |
| B6 | 100% |
| B7 | 100% |
| B8 | 62.5% |
| B9 | 102% |
| B10 | 111% |
| B11 | 112% |
| B12 | 89.3% |
| B13 | 80.4% |
| B14 | 86.2% |
| B15 | 71.4% |
| B16 | 87.7% |
| B17 | 94.5% |
| B18 | 90.7% |
| B19 | 118% |
| B20 | 87.8% |
| B21 | 90.1% |
| B22 | 94.1% |
| B23 | 99.4% |
| B24 | 128% |
| B25 | 87.4% |
| B26 | 101% |
| B27 | 106% |
| B28 | 117% |
| B29 | 72.4% |
| B30 | 62.6% |

Reference: patent US20260167699A1 (Chugai, published 2026)
